# Molecular target: FZD2-CRD-Fc, recombinant human Frizzled 2 cysteine-rich domain, Fc-tagged (human)
# Experiment: BLI
substance,measurement,value
"TcdB_(1-1830), truncated TcdB lacking the CROPs region (from UniProt P18177 1-1830) (domain or fragment)",Kd,17 nM
